B1: 3XFLAG-SHIP164_(Δ901–1099) (natural protein)
chain: not shown
notes: SHIP164 (UHRF1BP1L), human, codon-optimised ORF from Genscript; construct lacking the predicted unstructured segment, residues 901-1099; Seen as a tail-to-tail dimer in vitro; also called 3×FLAG-SHIP164_(Δ901–1099); UHRF1BP1L; source: Expi293F, transfected, purified (anti-FLAG M2 resin, gel filtration on Superdex 200); not shown: 3xFLAG, N-terminal, kept
B2: MBP-SHIP164 fusion (MBP fused to the N-terminus of SHIP164_(Δ901–1099)) (natural protein)
chain: not shown
notes: SHIP164 (UHRF1BP1L), human, codon-optimised ORF; lacks residues 901-1099; Probably made in Expi293F and purified as m1, possibly with a 3xFLAG tag as well; not shown: MBP (E. coli MBP residues 27–392 and two additional alanines), N-terminal, kept

Biological target: the molecule itself
Assay: negative-stain electron microscopy; 2D class averages of negatively stained purified protein (50 nM, 2% uranyl acetate, carbon-coated copper grids); MBP densities used to locate the N-termini

Protein	stoichiometry N
B1	2
B2	2

— publication PMC9067936, “SHIP164 is a chorein motif lipid transfer protein that controls endosome–Golgi membrane traffic” (The Journal of Cell Biology, 2022)
